Earlier results on one substance are cited in publication PMC6451932.

The data set has as its target fibrinogen β peptide (Fgβ) (Homo sapiens) (UniProt P02675).

Turning to SdrG (from UniProt Q9KI13), the Kd was 300 nM.

As a reminder, the Kd is the constant that tells how readily two partners part at equilibrium.
